This is an account of results in PMC3155659.

The target of the assay is amyloid precursor protein (APP), endogenous mouse (mouse (endogenous in mouse brain and primary neurons)). Briefly: co-IP.

B1: Disabled1 (Dab1), endogenous mouse (natural protein)
chain: MSTETELQVAVKTSAKKDSRKKGQDRSEATLIKRFKGEGVRYKAKLIGIDEVSAARGDKLCQDSMMKLKGVVAGARSKGEHKQKIFLTISFGGIKIFDEKTGALQHHHAVHEISYIAKDITDHRAFGYVCGKEGNHRFVAIKTAQAAEPVILDLRDLFQLIYELKQREELEKKAQKDKQCEQAVYQTILEEDVEDPVYQYIVFEAGHEPIRDPETEENIYQVPTSQKKEGVYDVPKSQPNSQPLEDFESRFAAATPNRNLSMDFDELLEATKVSAVTQLELFGDMSTPPDITSPPTPATPGDAFLPSSSQTLPGSADVFGSMSFGTAAVPSGYVAMGAVLPSFWGQQPLVQQQIAMGAQPPVAQVIPGAQPIAWGQPGLFPATQQAWPTVAGQFPPAAFMPTQTVMPLAAAMFQGPLTPLATVPGTNDSARSSPQSDKPRQKMGKESFKDFQMVQPPPVPSRKPDQPSLTCTSEAFSSYFNKVGVAQDTDDCDDFDISQLNLTPVTSTTPSTNSPPTPAPRQSSPSKSSASHVSDPTADDIFEEGFESPSKSEEQEAPDGSQASSTSDPFGEPSGEPSGDNISPQDGS
Molecule B1 displayed a decrease in APP-Dab1 co-precipitation against control, 20 min of Reelin of 89 % decrease; a decrease in APP-Dab1 co-precipitation against control, 1 hr of Reelin of 87 % decrease; a decrease in APP-Dab1 co-precipitation against control, 4 hrs of Reelin of 67 % decrease.
